Reference: the supplement of paper PMC9112550, “Optimization of the antimicrobial peptide Bac7 by deep mutational scanning” (BMC Biology, 2022)

tested on: Escherichia coli TOP10; experiment: shrunken log2 fold change of peptide-encoding DNA abundance (4.5 h post-induction vs induction); higher = less antimicrobial activity (less host growth inhibition); conditions: time post-induction: 4.5 h; library: site-saturation at positions 5, 18, 19, 20
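Note: peptides expressed intracellularly from a pBAD plasmid library in pooled LB shake-flask culture, induced with 0.3% L-arabinose, DNA abundance read by NGS, three biological replicates, DESeq2 with apeglm shrinkage.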

Point of comparison: RRIRPRPPRLPRPRPRPTGDPRP, “shrunken log2 fold change” value 0.649. Against it:
- RRIRFRPPRLPRPRPRPNPQPRP — lower, 0.17
- RRIRQRPPRLPRPRPRPPMCPRP — lower, -0.213
- RRIRHRPPRLPRPRPRPTEFPRP — lower, -0.153
- RRIRARPPRLPRPRPRPQTAPRP — lower, 0.188
- RRIRARPPRLPRPRPRPQAEPRP — higher, 0.892
- RRIRNRPPRLPRPRPRPPFMPRP — lower, -0.0578
- RRIRDRPPRLPRPRPRPHGLPRP — lower, -0.0404
- RRIRLRPPRLPRPRPRPREDPRP — lower, 0.327
- RRIRNRPPRLPRPRPRPWFRPRP — lower, 0.0475
- RRIRIRPPRLPRPRPRPWAFPRP — lower, -0.0187
- RRIRARPPRLPRPRPRPHKSPRP — lower, 0.42
- RRIRARPPRLPRPRPRPNPRPRP — within 0.2 log units, 0.722
- RRIRIRPPRLPRPRPRPLKSPRP — lower, -0.325
- RRIRYRPPRLPRPRPRPQIRPRP — lower, -0.00839
- RRIRNRPPRLPRPRPRPMIPPRP — lower, 0.0389
- RRIRARPPRLPRPRPRPYAWPRP — lower, -0.129
- RRIRSRPPRLPRPRPRPIMTPRP — lower, 0.164
- RRIRARPPRLPRPRPRPWDKPRP — lower, 0.0886
- RRIRCRPPRLPRPRPRPLNMPRP — lower, -0.646
- RRIRQRPPRLPRPRPRPCMPPRP — lower, -0.27
- RRIRNRPPRLPRPRPRPARRPRP — lower, 0.294
- RRIRCRPPRLPRPRPRPWINPRP — lower, 0.102
- RRIRQRPPRLPRPRPRPSREPRP — lower, 0.111
- RRIRSRPPRLPRPRPRPHPRPRP — lower, 0.375
- RRIRRRPPRLPRPRPRPGSDPRP — lower, 0.421
- RRIRSRPPRLPRPRPRPFNAPRP — lower, -0.459
- RRIRHRPPRLPRPRPRPFLVPRP — lower, -0.106
- RRIRCRPPRLPRPRPRPGDHPRP — lower, -0.583
- RRIRMRPPRLPRPRPRPENVPRP — lower, -0.0285
- RRIRIRPPRLPRPRPRPEPWPRP — lower, 0.39
- RRIRTRPPRLPRPRPRPIICPRP — lower, -0.121
- RRIRCRPPRLPRPRPRPVRNPRP — lower, 0.0515
- RRIRVRPPRLPRPRPRPQTGPRP — lower, -0.0393
- RRIRWRPPRLPRPRPRPQKIPRP — lower, -0.178
- RRIRWRPPRLPRPRPRPCLQPRP — lower, -0.21
- RRIRHRPPRLPRPRPRPPFIPRP — lower, -0.483
- RRIRARPPRLPRPRPRPWSKPRP — lower, -0.27
- RRIRCRPPRLPRPRPRPELLPRP — lower, -0.0954
- RRIRNRPPRLPRPRPRPNMNPRP — lower, -0.265
- RRIRPRPPRLPRPRPRPGHMPRP — lower, -0.238
- RRIRLRPPRLPRPRPRPGRCPRP — lower, 0.341
- RRIRNRPPRLPRPRPRPARVPRP — within 0.2 log units, 0.574
- RRIRPRPPRLPRPRPRPCQTPRP — lower, 0.0185
- RRIRFRPPRLPRPRPRPSHEPRP — lower, 0.204
- RRIRQRPPRLPRPRPRPWSLPRP — lower, -0.0828
- RRIRIRPPRLPRPRPRPVYRPRP — lower, 0.00778
- RRIRTRPPRLPRPRPRPFCVPRP — lower, -0.229
- RRIRIRPPRLPRPRPRPHICPRP — lower, -0.0273
- RRIRDRPPRLPRPRPRPCKHPRP — lower, -0.181
- RRIRIRPPRLPRPRPRPITTPRP — lower, -0.338
- RRIRDRPPRLPRPRPRPYPGPRP — lower, -0.0524
- RRIRIRPPRLPRPRPRPLIWPRP — lower, -0.236
- RRIRYRPPRLPRPRPRPSQWPRP — lower, -0.162
- RRIRARPPRLPRPRPRPSKHPRP — lower, -0.11
- RRIRGRPPRLPRPRPRPMNQPRP — lower, 0.0945
- RRIRVRPPRLPRPRPRPMKGPRP — lower, -0.01
- RRIRRRPPRLPRPRPRPAHQPRP — within 0.2 log units, 0.732
- RRIRQRPPRLPRPRPRPGKGPRP — lower, 0.00842
- RRIRDRPPRLPRPRPRPRSMPRP — lower, 0.211
